According to patent US20040258695A1, “Transferrin binding peptides and uses thereof” (priority 2003, published 2004):

Columns and labels:
human transferrin (hTf) = target: T1, human transferrin (hTf) (Homo sapiens, UniProt P02787); test: First M. catarrhalis TbpB N-lobe overlapping peptide library screened with β-galactosidase conjugated hTf (colorimetric); assay type: binding; conditions: 15 mer peptides with 4-amino acid overlap
T1 construct: purchased Sigma
Source text: (§1) Generation of the overlapping peptide libraries representing human transferrin or the TbpB N-lobe regions from different bacteria was by the ‘SPOTSCAN’ method (Genosys Biotechnologies) (13). Essentially the library consisted of linear peptides 15 amino acids in length that were immobilized onto a cellulose membrane using 9-flurorenylmethoxycarbonyl (Fmoc) amino acid-based synthesis. One membrane was used to generate a library of the C-lobe of hTf consisting of ninety-six 15 amino acid peptides with an 11 amino acid overlap. The overlapping hTf peptide represented amino acids 285 to 679 of the intact hTf protein (accession # NP_001054). The first peptide library representing TbpB N-lobe from M. catarrhalis 4223 (accession #AAC34277) consisted of thirty-two 15 amino acid peptides with a 4 amino acid overlap and included N-lobe amino acids 12-421. The amino acid numbers refer to the amino acids in the predicted mature, processed protein (i.e. the N-terminal cysteine is amino acid 1). The second peptide library representing M. catarrhalis 4223 TbpB N-lobe peptides included amino acids 27-421 but with an 11 amino acid overlap.
(§2) Two different methods for labeling proteins for library screening were used. Iron loaded human Tf (Sigma) was labeled by chemical cross-linking (using 3-maleimidobenzoic acid-N-hydroxysuccinimide ester) to a beta-galactosidase (β-gal) reporter enzyme as described elsewhere (18). This was used as a probe for calorimetric detection on the composite peptide library. The second method involved conjugating the truncations of the N-lobe of TbpB from M. catarrhalis 4223 to horseradish peroxidase (HRP). HRP conjugated proteins can be detected by chemiluminescence, providing a much more sensitive screen. The truncations were conjugated to HRP using the Linx HRP Rapid Protein Conjugation Kit (Invitrogen). These labeled fusion proteins were then used as a probe for chemiluminescent detection.
Binding experiments of hTf to the first peptide library was by the calorimetric method (Genosys Biotechnologies). Essentially hTf in blocking solution (10% Blocking buffer (Genosys Biotechnologies), 50 mg/ml sucrose, T-TBS, (0.137 M NaCl, 2.68 mM KCl, 50.4 mM Tris-Base, 0.05% Tween-20, pH8.0) was incubated with the membrane containing the peptide library for 4 hours at room temperature. The membrane was then washed sequentially in T-TBS and PBS before detection of bound beta-galactosidase using 5-bromo-4-chloro-3-indoyl-β-D-galactopyranoside (X-gal). Positive binding was determined by the development of a blue spot.
Initially, an overlapping peptide library representing the TbpB N-lobe of M. catarrhalis was prepared and probed for binding to labeled hTf. This library was comprised of thirty-two 15 mer peptides with a 4-amino acid overlap representing amino acids 12-421 of the mature M. catarrhalis TbpB. The library was screened for binding to β-galactosidase (β-gal) conjugated hTf (β-gal-hTf ) and a number of positive-binding peptides were detected with varying intensity of colored product.

[1] = test system: TbpB N-lobe from M. catarrhalis 4223 (Mbp fusion truncations); test: hTf C-lobe overlapping peptide library probed with HRP-labeled TbpB N-lobe truncations (chemiluminescence); assay type: binding, Moraxella catarrhalis; conditions: for Binding By Truncations, Segments Included 1: TbpB N-lobe segment 1; for Binding By Truncations, Segments Included 1-2: TbpB N-lobe segments 1-2
Source text: as §1
TbpB truncations were generated by PCR-based cloning into the pMal expression system (New England BioLabs) as described previously (33). Essentially, amplified tbpB gene segments were subcloned into the pMal-c2 expression vector to generate an in frame fusion with the malE gene. Intact Moraxella catarrhalis 4223 TbpB consisted of amino acids 3-680 where 1 represents the N-terminal cysteine of the mature processed protein. Amino acids 1 and 2 from the mature protein were removed to ease cloning and subsequent expression. The N-terminal half of this gene consisted of amino acids 3 to 421. The truncated TbpB proteins were expressed as maltose binding protein fusions in E. coli ER2507 or ER2508 (for segments 1 and 1-2) and purified by amylose affinity chromatography.
as §2
For increased sensitivity, the TbpB N-lobe truncations from M. catarrhalis were conjugated to HRP for production and detection of chemiluminescent product. The membrane was rinsed with methanol and washed with 3 changes (5 minutes each) of TBS (0.137 M NaCl, 2.68 mM KCl, 50.4 mM Tris-Base, pH=8.0) on a rocking platform. The membrane was blocked by rocking at room temperature in blocking solution consisting of 20 ml of 0.5% Skim milk powder (BioRad) in TBS for 2.5 hours. The membrane was washed with T-TBS 3 times before being incubated with one of the HRP conjugated truncations diluted 1:1000 in skim milk blocking solution for 4 hours at room temperature. The membrane was then washed again 3 times with T-TBS, drained and incubated with 10 ml of Lumiglo mixture (Kirkegaard and Perry Laboratories) for 5 minutes. It was then exposed to X-omat Blue XB-1 X-Ray film (Kodak) for at least 30 seconds before developing. Positive peptides show up as dark spots on a light background.
To plan the truncation experiments, the N-lobe of M. catarrhalis was divided into seven segments with the identified binding peptides at their junctions. […]

β-galactosidase alone = target: T2, β-galactosidase alone (UniProt P00722 2-1024 = β-galactosidase); test: SPOT peptide library 1 probed with beta-galactosidase alone, colorimetric
T2 construct: Negative control probe for library 1; also called beta-galactosidase
T2 sequence (P00722 2-1024 limits assumed): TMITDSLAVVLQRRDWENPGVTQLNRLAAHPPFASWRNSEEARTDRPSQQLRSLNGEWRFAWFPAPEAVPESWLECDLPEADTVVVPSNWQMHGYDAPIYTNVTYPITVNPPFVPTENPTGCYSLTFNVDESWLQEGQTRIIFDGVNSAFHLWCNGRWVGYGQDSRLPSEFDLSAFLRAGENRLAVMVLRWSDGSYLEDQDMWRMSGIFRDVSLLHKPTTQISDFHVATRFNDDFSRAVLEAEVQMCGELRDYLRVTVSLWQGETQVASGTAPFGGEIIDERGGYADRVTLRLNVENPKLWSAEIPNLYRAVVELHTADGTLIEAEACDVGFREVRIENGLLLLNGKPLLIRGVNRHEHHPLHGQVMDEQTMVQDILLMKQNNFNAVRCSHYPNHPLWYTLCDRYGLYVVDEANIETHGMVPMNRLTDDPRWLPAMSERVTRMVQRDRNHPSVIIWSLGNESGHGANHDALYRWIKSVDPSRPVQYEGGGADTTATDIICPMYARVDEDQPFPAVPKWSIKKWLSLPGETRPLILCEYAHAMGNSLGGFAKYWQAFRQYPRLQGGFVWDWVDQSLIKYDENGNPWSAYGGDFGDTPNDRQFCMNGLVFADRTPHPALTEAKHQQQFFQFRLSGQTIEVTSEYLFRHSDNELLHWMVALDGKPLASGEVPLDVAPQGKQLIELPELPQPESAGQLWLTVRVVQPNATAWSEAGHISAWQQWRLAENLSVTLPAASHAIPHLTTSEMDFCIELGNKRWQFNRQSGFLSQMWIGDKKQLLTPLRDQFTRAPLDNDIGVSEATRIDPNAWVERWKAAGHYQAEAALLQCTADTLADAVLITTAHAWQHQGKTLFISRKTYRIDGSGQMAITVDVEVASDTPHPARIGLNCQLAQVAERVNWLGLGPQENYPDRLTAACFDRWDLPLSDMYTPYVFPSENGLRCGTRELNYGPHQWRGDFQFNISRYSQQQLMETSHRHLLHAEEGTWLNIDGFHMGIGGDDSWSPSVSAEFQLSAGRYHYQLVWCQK

[2] = target: T3, human transferrin (hTf), iron loaded (human, UniProt P02787 20-698); test: SPOT peptide library 1 of TbpB N-lobe probed with beta-gal-hTf, colorimetric
T3 construct: Used as a labelled probe (beta-gal conjugate for library 1, HRP conjugate for library 2 and the solid-phase assay); also called β-gal-hTf; HRP conjugated hTf
T3 sequence (P02787 20-698 limits assumed): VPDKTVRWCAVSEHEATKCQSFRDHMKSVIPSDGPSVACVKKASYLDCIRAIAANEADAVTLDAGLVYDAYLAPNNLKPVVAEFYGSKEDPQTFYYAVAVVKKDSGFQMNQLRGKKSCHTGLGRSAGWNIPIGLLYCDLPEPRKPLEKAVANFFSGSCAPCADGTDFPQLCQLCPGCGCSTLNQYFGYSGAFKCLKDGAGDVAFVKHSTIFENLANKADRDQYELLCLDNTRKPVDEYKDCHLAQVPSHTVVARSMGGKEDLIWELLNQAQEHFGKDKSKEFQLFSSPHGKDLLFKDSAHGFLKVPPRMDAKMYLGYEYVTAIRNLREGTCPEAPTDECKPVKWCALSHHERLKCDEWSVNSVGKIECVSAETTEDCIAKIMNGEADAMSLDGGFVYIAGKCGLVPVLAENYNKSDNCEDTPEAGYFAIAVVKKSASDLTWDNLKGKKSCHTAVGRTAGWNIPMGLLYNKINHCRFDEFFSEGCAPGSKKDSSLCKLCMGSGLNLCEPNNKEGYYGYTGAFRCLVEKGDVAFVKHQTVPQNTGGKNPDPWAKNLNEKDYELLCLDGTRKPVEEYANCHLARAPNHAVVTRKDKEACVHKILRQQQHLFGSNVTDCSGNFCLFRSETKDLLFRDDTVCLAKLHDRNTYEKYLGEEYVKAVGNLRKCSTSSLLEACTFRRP

[3] = target: T3, human transferrin (hTf), iron loaded; test: TbpB overlapping peptide library probed with labelled hTf as in Example 1
[4] = target: T3, human transferrin (hTf), iron loaded; test: as above; remark: listed apart in the source

T1 sequence (P02787 20-698): as the sequence (P02787 20-698 limits assumed) above

Molecule: agwyygasskdeynr (AGWYYGASSKDEYNR; M. catarrhalis) [Peptide 85]
- binding to β-gal-hTf, intensity of colored product (human transferrin (hTf)): weakly positive

Molecule: chlarapnhavvtrk [Peptide 44]
- Binding By Truncations, Segments Included 1-5 ([1]; TbpB N-lobe segments 1-5, listed as 16 (yellow)): lost reactivity

Molecule: danihgnrfrgsata (DANIHGNRFRGSATA; M. catarrhalis) [Peptide 92]
- binding to β-gal-hTf, intensity of colored product (human transferrin (hTf)): strongly positive

Molecule: fmtdvanrrnrfsev (FMTDVANRRNRFSEV; M. catarrhalis) [Peptide 83]
- binding to β-gal-hTf, intensity of colored product (human transferrin (hTf)): moderately positive

Molecule: fsnlqdrhkgnvtkt (FSNLQDRHKGNVTKT; M. catarrhalis) [Peptide 90]
- binding to β-gal-hTf, intensity of colored product (human transferrin (hTf)): strongly positive

Molecule: gpvggvfyngtttak (GPVGGVFYNGTTTAK; M. catarrhalis) [Peptide 80]
- binding to β-gal-hTf, intensity of colored product (human transferrin (hTf)): strongly positive

Molecule: gsnvtdcsgnfclfr [Peptide 45]
- Binding By Truncations, Segments Included 1 ([1]; listed as 18 (brown)): loss of binding

Molecule: gyygytgafrclvek (GYYGYTGAFRCLVEK; listed as Homo sapiens) [Peptide 43, hTf C-lobe library peptide, domain 2 (Red)]
- Binding By Truncations, Segments Included 1-2 ([1]; listed as 15 (red)): lost reactivity

Molecule: kksasdltwdnlkgk (KKSASDLTWDNLKGK; listed as Homo sapiens) [Peptide 40, hTf C-lobe library peptide, domain 2 (Green)]
- Binding By Truncations, Segments Included 1-3 ([1]; TbpB N-lobe segments 1-3, listed as 12 (green)): lost reactivity

Molecule: kylgeeyvkavgnlr (KYLGEEYVKAVGNLR; listed as Homo sapiens) [Peptide 47, hTf C-lobe library peptide, tail (Cyan)]
- Binding By Truncations, Segments Included 1-6 ([1]; TbpB N-lobe segments 1-6, listed as 20 (Cyan)): bound all of the peptides except the one

Molecule: lcmgsglnlcepnnk (LCMGSGLNLCEPNNK; listed as Homo sapiens) [Peptide 42, hTf C-lobe library peptide, domain 2 (Red)]
- Binding By Truncations, Segments Included 1-2 ([1]; listed as 14 (red)): lost reactivity

Molecule: mgygmalskinlhnr (MGYGMALSKINLHNR; M. catarrhalis) [Peptide 65]
- binding to β-gal-hTf, intensity of colored product (human transferrin (hTf)): moderately positive

Molecule: nipmgllynkinhcr (NIPMGLLYNKINHCR; listed as Homo sapiens) [Peptide 41, hTf C-lobe library peptide, domain 2 (Blue)]
- Binding By Truncations, Segments Included 1-4 ([1]; TbpB N-lobe segments 1-4, listed as 13 (Blue)): lost reactivity

Molecule: tdcsgnfclfrsetk [Peptide 46]
- Binding By Truncations, Segments Included 1 ([1]; listed as 19 (brown)): loss of binding

B1: M. catarrhalis TbpB N-lobe peptide mgygmalskinlhnr (peptide)
peptide: MGYGMALSKINLHNR
notes: SPOT peptide immobilised on cellulose membrane; also called spot #65
- binding result (β-galactosidase alone): no binding
- binding result [2]: binds

B2: M. catarrhalis TbpB N-lobe peptide fsnlqdrhkgnvtkt (peptide)
peptide: FSNLQDRHKGNVTKT
notes: SPOT peptide immobilised on cellulose membrane; also called spot #90
- binding result (β-galactosidase alone): no binding
- binding result [2]: binds

B3: M. catarrhalis TbpB N-lobe peptide danihgnrfrgsata (peptide)
peptide: DANIHGNRFRGSATA
notes: SPOT peptide immobilised on cellulose membrane; also called spot #92
- binding result (β-galactosidase alone): no binding
- binding result [2]: binds

B4: M. catarrhalis TbpB N-lobe peptide gpvggvfyngtttak (peptide)
peptide: GPVGGVFYNGTTTAK
notes: SPOT peptide immobilised on cellulose membrane; also called spot #80
- binding result (β-galactosidase alone): no binding
- binding result [2]: binds

B5: M. catarrhalis TbpB N-lobe peptide fmtdvanrrnrfsev (peptide)
peptide: FMTDVANRRNRFSEV
notes: SPOT peptide immobilised on cellulose membrane; also called spot #83
- binding result (β-galactosidase alone): no binding
- binding result [2]: binds

Molecule: FYKHAASEKDFSNKK (library peptide) [N. meningitidis TbpB peptide FYKHAASEKDFSNKK]
- binding result [3]: binds

Molecule: PSRQLPASGKVIYKG (library peptide) [N. meningitidis TbpB peptide PSRQLPASGKVIYKG]
- binding result [3]: binds

Molecule: VIYKGVWHFVTDTKK (library peptide) [N. meningitidis TbpB peptide VIYKGVWHFVTDTKK]
- binding result [3]: binds

Molecule: YKGTWSFITAAENGK (library peptide) [H. influenzae TbpB peptide YKGTWSFITAAENGK]
- binding result [4]: binds

Molecule: RNSGGGQAYSRRSAT (library peptide) [H. influenzae TbpB peptide RNSGGGQAYSRRSAT]
- binding result [4]: binds

B6: M. catarrhalis TbpB N-lobe peptide agwyygasskdeynr (peptide)
peptide: AGWYYGASSKDEYNR
notes: SPOT peptide immobilised on cellulose membrane; also called spot #85
- binding result (β-galactosidase alone): no binding
- binding result [2]: binds

Molecule: TDANKSQNRTHKLYD (library peptide) [H. influenzae TbpB peptide TDANKSQNRTHKLYD]
- binding result [4]: binds

Molecule: GKFLAHDKKVLGVFS (library peptide) [H. influenzae TbpB peptide GKFLAHDKKVLGVFS]
- binding result [4]: binds
